{"source": "patent US9114104B2", "about": "“Proteinase K inhibitors, methods and compositions therefor” (Life Technologies Corporation, priority 2008, dated 2015)", "key": {"proteinase K [1]": {"biological_target": "T1, proteinase K (Parengyodontium album, UniProt P06873)", "T1 sequence (P06873 106-384)": "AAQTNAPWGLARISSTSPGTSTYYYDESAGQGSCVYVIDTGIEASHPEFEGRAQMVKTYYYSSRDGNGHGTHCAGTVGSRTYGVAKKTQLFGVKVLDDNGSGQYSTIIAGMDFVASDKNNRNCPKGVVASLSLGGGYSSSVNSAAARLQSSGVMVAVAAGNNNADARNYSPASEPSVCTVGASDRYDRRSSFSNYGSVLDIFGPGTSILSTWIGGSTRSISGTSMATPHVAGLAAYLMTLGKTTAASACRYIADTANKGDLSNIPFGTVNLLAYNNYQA", "test": "Indirect linked assay: proteinase K inhibition read out by reverse transcriptase real time PCR of Xeno RNA template (Cells-to-CT kit)", "format": "biochemical", "excerpt": "The present example provides for inhibition of proteinase K in the context of preparing samples for nucleic acid detection. Said preparation of samples is described by pending U.S. patent application Ser. No. 12/122,274 filed May 16, 2008 entitled “Sample Preparation for In Situ Nucleic Acid Analysis, Methods and Compositions Therefor,” hereby incorporated by reference in its entirety. Embodiments of said patent application provide a process for preparing a sample containing RNA for in situ analysis of RNA or a surrogate thereof. In some embodiments, the process comprises contacting the sample containing RNA with a lysis mixture comprising a polypeptide having protease activity under conditions and for a time to produce a lysate, and admixing at least a portion of the lysate with a stop mixture that comprises an inhibitor of the polypeptide having protease activity at substantially the same temperature as the contacting step to form a stopped mixture. The resultant stopped mixture is preferably compatible with in situ reverse transcriptase and DNA polymerase reactions.\nMethoxysuccinyl tetrapeptide chloromethylketone compounds synthesized as set forth in Example 1 herein were analyzed for inhibitory activity of proteinase K in such stopped mixtures as described below. Functional validation for the nucleic acid detection system using inhibitors of embodiments herein was carried out by measuring mRNA levels in biological samples using the TaqMan® Gene Expression Cells-to-CT™ Kit and the TaqMan® Cells-to-CT™ Control Kit (Applied Biosystems, Foster City, Calif.). MicroAmp® optical 96-well reaction plates were purchased from Applied Biosystems. Disposable reagent reservoirs were purchased from VistaLab Technologies, Inc (Mt. Kisco, N.Y.). Reverse transcription (RT) reactions were performed at 37° C. for 60 min, 95° C. for 5 min, and cooled to 4° C. by using GeneAmp® PCR systems 9700 (Applied Biosystems). Real time PCR was performed by using 7500 Fast Real-Time PCR System. (Applied Biosystems).\nThe present indirect linked assay measures the amount of inhibition of proteinase K activity by assaying reverse transcriptase real time PCR amplification of a template, which amplification is dependent upon reverse transcriptase activity.\nStop solutions (100 μl) contained the following reagents (10× concentration):\nTest inhibitor, 11 mM (final concentration when diluted into stopped mixture is 1 mM). Test inhibitor was also used at concentrations such that, when diluted with a lysis mixture to form a stopped mixture as described below, the final concentration of inhibitor in the stopped mixture was 0.75 mM, 0.5 mM, 0.25 mM, 0.10 mM, 0.05 mM and 0 mM (control).\nProteinase K lysis solution (50 μL (no added DNase)) from the TaqMan® gene expression Cells-to-CT™ kit (Applied Biosystems) was aliquoted into 18 tubes. To the test samples (these are a working equivalent to lysis mixtures in the Cells-to-CT™ workflow), stop solution (5 μL) was added; the tubes were mixed and held for 2 min at room temperature. For the control reactions, 50 μl of proteinase K buffer was mixed with 5 μl of stop mix without inhibitor and the resulting reaction mixture was heated at 95° C. for 10 min to thermally inactivate the proteinase K reaction. Next, reverse transcription reagents were prepared, i.e. 15 μL 2×RT buffer, and 1.5 μL of 20×RT enzyme mix, were aliquoted and mixed in the wells of a 96 well plate. To this RT solution, 13.5 μL of each proteinase K containing stopped mixture was added and the solution was mixed well. The resulting mixtures were incubated at room temperature for 1 hr for residual proteinase K activity to degrade the RT enzyme. After 1 hr incubation at room temperature, 1 μL of Xeno™ RNA Control template (Applied Biosystems P/N 4386995 diluted to 25,000 copies/μL in 10 ng/μL poly A) was added to all wells except for the no template control wells. […]"}, "proteinase K [2]": {"biological_target": "T1, proteinase K", "details": "100 μg/ml proteinase K; cited from earlier work"}, "proteinase K [3]": {"biological_target": "T1, proteinase K", "test": "Detection of β-actin RNA in HeLa cell lysates after stop solution (in vitro validation)", "format": "biochemical", "details": "FIG. 6; ~10,000 HeLa cells lysed, β-actin RT-PCR", "protocol": "HeLa cells (˜10,000 cells) were lysed in 50 μl lysis solution for 5 minutes at room temperature. Stop solution (5 μl) was then added; the lysate-stop solution was mixed, and incubated for 2 minutes at room temperature. A volume of 10 μl of stopped lysate was added to a 50 μl RT reaction followed by addition of 4 μl of RT reaction into a 20 μl PCR reaction using the β-actin primers/probe of the TaqMan® Gene Expression Cells-to-CT™ Kit (Applied Biosystems)."}}, "note": "The star is where a group is joined. MeOSuc = COC(=O)CCC(=O)*; CH2Cl = ClC*", "data": [{"substance": "methoxysuccinyl-AlaAlaProVal-chloromethyl ketone (MeOSuc-AAPV-CH2Cl) [reference compound]", "values": [{"measurement": "lowest concentration in the stopped mixture with inhibitory activity for proteinase K", "setting": "proteinase K [1]; Example 2, FIG. 1, tested 1 mM to 0.05 mM in stopped mixture", "value": "about 0.25 mM"}, {"measurement": "lowest concentration in the stopped mixture inhibitory for proteinase K activity", "setting": "proteinase K [1]; Example 6, FIG. 5, tested 1 mM to 0.05 mM", "value": "about 0.25 mM"}, {"measurement": "concentration at which inhibitor begins to lose efficacy", "setting": "proteinase K [1]; FIG. 1", "value": "greater than 0.25 mM"}, {"measurement": "average Ct (cycle threshold)", "setting": "proteinase K [1]; FIG. 1, 0.1 mM inhibitor", "value": 40}, {"measurement": "average Ct (cycle threshold)", "setting": "proteinase K [1]; FIG. 1, 0.25 mM inhibitor", "value": "about 33"}, {"measurement": "average Ct (cycle threshold)", "setting": "proteinase K [1]; FIG. 1, 0.5 mM inhibitor, Ct ~40 = active proteinase K, ~30 = inhibited", "value": "about 30"}, {"measurement": "average Ct (cycle threshold)", "setting": "proteinase K [1]; FIG. 5, 0.1 mM inhibitor", "value": "about 40"}, {"measurement": "average Ct (cycle threshold)", "setting": "proteinase K [1]; FIG. 5, 0.25 mM inhibitor", "value": "about 29"}, {"measurement": "lowest concentration with inhibitory activity for proteinase K", "setting": "proteinase K [2]", "value": 0.25, "unit": "mM"}, {"measurement": "concentration providing effective inhibition of proteinase K", "setting": "proteinase K [3]", "value": 0.5, "unit": "mM"}]}]}
